Data reported in the supplement of paper PMC9112550, “Optimization of the antimicrobial peptide Bac7 by deep mutational scanning” (BMC Biology, 2022).

Test system: Escherichia coli TOP10
Assay: shrunken log2 fold change of peptide-encoding DNA abundance (4.5 h post-induction vs induction); higher = less antimicrobial activity (less host growth inhibition)
Conditions: time post-induction: 4.5 h; library: site-saturation at positions 5, 18, 19, 20
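Note: peptides expressed intracellularly from a pBAD plasmid library in pooled LB shake-flask culture, induced with 0.3% L-arabinose, DNA abundance read by NGS, three biological replicates, DESeq2 with apeglm shrinkage.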

| Sequence | shrunken log2 fold change |
| --- | --- |
| RRIRHRPPRLPRPRPRPDHIPRP | -0.336 |
| RRIRKRPPRLPRPRPRPTEYPRP | 0.0661 |
| RRIRTRPPRLPRPRPRPQKCPRP | -0.0262 |
| RRIRFRPPRLPRPRPRPDITPRP | -0.0339 |
| RRIRIRPPRLPRPRPRPHHRPRP | -0.46 |
| RRIRIRPPRLPRPRPRPSNKPRP | -1.01 |
| RRIRVRPPRLPRPRPRPPFEPRP | 0.26 |
| RRIRIRPPRLPRPRPRPRGPPRP | 0.81 |
| RRIRDRPPRLPRPRPRPCEEPRP | -0.187 |
| RRIRRRPPRLPRPRPRPDNHPRP | -0.215 |
| RRIRKRPPRLPRPRPRPGMDPRP | 0.195 |
| RRIRMRPPRLPRPRPRPPAGPRP | 1.5 |
| RRIRTRPPRLPRPRPRPHSEPRP | -0.0681 |
| RRIRERPPRLPRPRPRPKCLPRP | -0.0209 |
| RRIRSRPPRLPRPRPRPVAMPRP | 0.0384 |
| RRIRDRPPRLPRPRPRPKIPPRP | -0.355 |
| RRIRERPPRLPRPRPRPDSYPRP | -0.00865 |
| RRIRMRPPRLPRPRPRPDAEPRP | 4.37 |
| RRIRPRPPRLPRPRPRPIVNPRP | -0.166 |
| RRIRWRPPRLPRPRPRPRIHPRP | 0.178 |
| RRIRERPPRLPRPRPRPSLYPRP | -0.558 |
| RRIRQRPPRLPRPRPRPTCLPRP | -0.108 |

| Sequence | shrunken log2 fold change |
| --- | --- |
| RRIRMRPPRLPRPRPRPGNRPRP | 0.0934 |
| RRIRKRPPRLPRPRPRPYIIPRP | -0.0823 |
| RRIRWRPPRLPRPRPRPRYTPRP | -0.25 |
| RRIRWRPPRLPRPRPRPGILPRP | 0.0649 |
| RRIRWRPPRLPRPRPRPVCRPRP | 0.353 |
| RRIRKRPPRLPRPRPRPWNQPRP | -0.0169 |
| RRIRIRPPRLPRPRPRPTTCPRP | -0.447 |
| RRIRHRPPRLPRPRPRPTRIPRP | -0.0296 |
| RRIRLRPPRLPRPRPRPAMAPRP | 0.00127 |
| RRIRWRPPRLPRPRPRPSPPPRP | 0.423 |
| RRIRERPPRLPRPRPRPGQSPRP | 0.0977 |
| RRIRHRPPRLPRPRPRPSWPPRP | -0.00928 |
| RRIRKRPPRLPRPRPRPMWVPRP | -0.232 |
| RRIRIRPPRLPRPRPRPEEAPRP | 0.215 |
| RRIRKRPPRLPRPRPRPPIEPRP | 0.223 |
| RRIRGRPPRLPRPRPRPIYCPRP | 0.112 |
| RRIRSRPPRLPRPRPRPDSFPRP | -0.0457 |
| RRIRYRPPRLPRPRPRPESFPRP | -0.0275 |
| RRIRERPPRLPRPRPRPFTQPRP | -0.299 |
| RRIRLRPPRLPRPRPRPRIVPRP | -0.175 |
| RRIRPRPPRLPRPRPRPFNNPRP | -0.836 |
| RRIRLRPPRLPRPRPRPSFMPRP | -0.309 |

| Sequence | shrunken log2 fold change |
| --- | --- |
| RRIRFRPPRLPRPRPRPFWQPRP | -0.321 |
| RRIRNRPPRLPRPRPRPLYTPRP | -0.269 |
| RRIRARPPRLPRPRPRPKMDPRP | 0.384 |
| RRIRGRPPRLPRPRPRPHVTPRP | 0.00976 |
| RRIRMRPPRLPRPRPRPGKCPRP | -0.0233 |
| RRIRVRPPRLPRPRPRPKCTPRP | -0.0595 |
| RRIRPRPPRLPRPRPRPEADPRP | 0.0865 |
| RRIRFRPPRLPRPRPRPYECPRP | -0.0179 |
| RRIRARPPRLPRPRPRPPWQPRP | 0.675 |
| RRIRARPPRLPRPRPRPFACPRP | 0.829 |
| RRIRERPPRLPRPRPRPCDIPRP | -0.329 |
| RRIRRRPPRLPRPRPRPELQPRP | 0.212 |
| RRIRCRPPRLPRPRPRPCICPRP | -0.105 |
| RRIRERPPRLPRPRPRPGFGPRP | 0.0959 |
| RRIRMRPPRLPRPRPRPQMGPRP | 0.0997 |
| RRIRLRPPRLPRPRPRPHFKPRP | -0.367 |
| RRIRFRPPRLPRPRPRPIWPPRP | 0.21 |
| RRIRFRPPRLPRPRPRPGGTPRP | -0.0188 |
| RRIRNRPPRLPRPRPRPIWSPRP | 0.0615 |
| RRIRWRPPRLPRPRPRPGFLPRP | 0.144 |
| RRIRSRPPRLPRPRPRPLIKPRP | -0.258 |
| RRIRTRPPRLPRPRPRPFYGPRP | -0.473 |

| Sequence | shrunken log2 fold change |
| --- | --- |
| RRIRMRPPRLPRPRPRPFGYPRP | 0.067 |
| RRIRERPPRLPRPRPRPYMKPRP | -0.438 |
| RRIRDRPPRLPRPRPRPEDNPRP | 1.31 |
| RRIRERPPRLPRPRPRPDNRPRP | -0.0217 |
| RRIRGRPPRLPRPRPRPLWSPRP | 0.117 |
| RRIRLRPPRLPRPRPRPELIPRP | -0.0413 |
| RRIRKRPPRLPRPRPRPRQRPRP | 1.57 |
| RRIRPRPPRLPRPRPRPLHTPRP | -0.128 |
| RRIRLRPPRLPRPRPRPVLSPRP | -0.0937 |
| RRIRPRPPRLPRPRPRPDFYPRP | -0.156 |
| RRIRPRPPRLPRPRPRPNHIPRP | -0.856 |
| RRIRTRPPRLPRPRPRPFQPPRP | 0.0737 |
| RRIRERPPRLPRPRPRPIQDPRP | 0.876 |
| RRIRHRPPRLPRPRPRPQEWPRP | -0.119 |
| RRIRDRPPRLPRPRPRPVGNPRP | 0.114 |
| RRIRERPPRLPRPRPRPRGNPRP | -0.598 |
| RRIRVRPPRLPRPRPRPCWAPRP | 0.154 |
| RRIRYRPPRLPRPRPRPFRCPRP | 0.0856 |
| RRIRARPPRLPRPRPRPPFLPRP | 0.529 |
| RRIRTRPPRLPRPRPRPMIGPRP | -0.107 |
| RRIRTRPPRLPRPRPRPCFLPRP | -0.535 |
| RRIRWRPPRLPRPRPRPCENPRP | 0.285 |

| Sequence | shrunken log2 fold change |
| --- | --- |
| RRIRYRPPRLPRPRPRPRAHPRP | -0.121 |
| RRIRVRPPRLPRPRPRPAWSPRP | 0.192 |
| RRIRLRPPRLPRPRPRPDAYPRP | -0.281 |
| RRIRSRPPRLPRPRPRPTYFPRP | -0.563 |
| RRIRQRPPRLPRPRPRPEFDPRP | 0.00351 |
| RRIRCRPPRLPRPRPRPINIPRP | -0.702 |
| RRIRVRPPRLPRPRPRPWDPPRP | -0.301 |
| RRIRCRPPRLPRPRPRPIVFPRP | -0.31 |
| RRIRFRPPRLPRPRPRPNLRPRP | -0.0383 |
| RRIRARPPRLPRPRPRPCYCPRP | -0.0765 |
| RRIRVRPPRLPRPRPRPFGHPRP | 0.13 |
| RRIRSRPPRLPRPRPRPQCRPRP | -0.0553 |
| RRIRGRPPRLPRPRPRPRARPRP | 1.09 |
| RRIRVRPPRLPRPRPRPKNYPRP | -0.359 |
| RRIRARPPRLPRPRPRPNTQPRP | -0.0663 |
| RRIRRRPPRLPRPRPRPVQSPRP | 0.0557 |
| RRIRERPPRLPRPRPRPLPWPRP | 0.0953 |
| RRIRTRPPRLPRPRPRPADHPRP | -0.0507 |
| RRIRYRPPRLPRPRPRPTNRPRP | -0.363 |
| RRIRDRPPRLPRPRPRPIKDPRP | -4 |
| RRIRKRPPRLPRPRPRPFRDPRP | 0.222 |
